Source: the domain aggregation screens of Martell et al. (2025)

Assay: soluble fraction after stress (log2 fold change); higher = more stays soluble; pooled small domains, quantitative proteomics
Conditions: stress: pH 4
Outline: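 Pooled custom libraries of small protein domains were subjected to pH 4 and measured by high-throughput quantitative proteomics. The log2 fold change in soluble amount per domain is reported, higher values meaning more remained soluble. This is used as a measure of aggregation propensity.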

First: HMRRDEDLAHGRELLEKELRKQGLEVSENLKQDKLLEGAKRLGFLEAEDLVVAVGSGKVSAGMAVGRIIG
Second: HMRREKVLIKLAENLASKVLRTKKSIELEPMTPYERKVIHTTIENISGVKSWSEGENLQRHLIVALDE
The “soluble fraction (log2)” value of the first is lower: -0.411 for the first, 0.188 for the second.

Going from “HMRRGPLTPDDFVLDMRVVHPRYGVGRIVALSGSGESRKATVDFGGSIGRMKFVLSQSPLKP” to “HMRRHLLEMNDAIGRLGRLISEDPADRDVAEVIWAALRGMVMGQMIMNEPIDWQRERRTLVEMAIGR”, the “soluble fraction (log2)” value falls from ≥ 0.43 to 0.119.

First: HMRRIADVVPEQLTREEAEELLETLAEQGEIHEEQALLARYILEQSLQGVAPEVEPLIRAKLLAGILMVY
Second: HMRRKDIEFTNTMLEELYRHNSKWYDAVVRAYALEIPQKQIAEEMGIRLEAFQSMLFRAKKWIKTKYEADY
The “soluble fraction (log2)” value of the first is lower: -1.67 for the first, -0.432 for the second.

“HMRRNLSGEDTIVNRMAQWQYTQEQKNELHKMMDAGMPQEDILSVFYPEIKAEEMHRFLLAFQTAHNSG” and “HMRRPRGVFNLVPRGFKRFGFITPDGGGEDMFAHLENVRAGHVVEDRNAVEYGIGRGPDGRDQAVDIVPVP” are within 0.2 log units of each other in “soluble fraction (log2)” value: -0.0487 for the first, -0.112 for the second.

Compared with “HMRRPTYPTVTTEAGMVVEDRSSGFVGDIVRWSFEGVTLRDRQQQLRHFTWKPGGFLINGTPVTLKRPE”, “HMRRRVIGTLVMGDMSTDFKVLADGHTHRVLAAAISFHKAKPGDEVVILVPKSAPSKWAAVEHVMK” is higher in “soluble fraction (log2)” value: 0.0911 for the first, ≥ 0.43 for the second.

Compared with “HMRSAKLPYSEFLKLVDTDKVNDVSIVGRTISGHLDDGSKFSTYTPPNDPNIIEKLSSHNVIINSAPE”, “HMRSASFDIMSQKQSDATLGYERVYDTETNEVYKAYNGFTDDYDGERYKSISDNMYTKGISGYIEK” is lower in “soluble fraction (log2)” value: 0.337 for the first, -0.151 for the second.

“HMRSDSEIKEDVLDELMWQPNIDETQIGVIVEKGVVTLTGFVDAYAKKTAALDAVKNVKGVKAVANDIEV” and “HMRSFGRLRRRDSGRWEAAYVGPDARLYRAPATFEAKDDAIAWLSAERRMIELDTWIKPHDRASR” are within 0.2 log units of each other in “soluble fraction (log2)” value: -0.0968 for the first, -0.000443 for the second.

“HMRSGFAFSEEEIKHLDNIVSPLLIKGQSIHHISIFHKDEVMMSERTLYSYVNNGLFSARNIDMPRTVRMR” and “HMRSISVEMDGKEYLIPTVSENGKVLSDDDAVKQFKKTGKHLDVFDSPEDATAYARQLHEDQESFYA” are within 0.2 log units of each other in “soluble fraction (log2)” value: 0.218 for the first, 0.22 for the second.

Going from “HMRSKTDLVYEEIKKLILRGELSSDTPISENHLARRFEISRTPIREALKRLHIEGFVRIIPNHGVFVR” to “HMRSLAVGNVVSEEGKPSYLLLDSKRTMLFSENSIPSLYLEDGRRVIVNYTLLDEDYQGYDFRIHVNDIDT”, the “soluble fraction (log2)” value rises from -0.304 to 0.22.

Going from “HMRSNADALIGRTARVSQTIVENGFGRVALDGDDWKAQAADGSRIEEGQNVIVKDRDSIILTVEKE” to “HMRSNIYTEEKLWTVLQDFFQENRYLTISLMRMKFGLSRHMAQKWIDHFIAKGLLVKDGTPRSPIYFLND”, the “soluble fraction (log2)” value falls from 0.256 to -0.538.

First: HMRSNQKVSQIAISQVLPGMVTAKNVYSRNDQLILNRETTLDSTKIAKIMFYAIESIYVYEPE
Second: HMRSPVDALSNRELQVLQMVGRGLSSRQVAEALHLSVKTVEAHRQRIKGKLGLRTGAQLVQFAANWVTG
The “soluble fraction (log2)” value of the first is lower: -0.6 for the first, -0.182 for the second.

First: HMRSREGVRWIIRERIMEELQERHHMDDGELLEMIDRSIGEMGQEIFLPLKERIWLRGSLFDSFR
Second: HMRSWRDQRVDDLLAAVSELGMTMSRAAAGDLLDQRVEYVANQMRVTPATARKYLTEETLAGMAREIVFG
The “soluble fraction (log2)” value of the first is lower: -1.44 for the first, -0.83 for the second.

“HMRTAFPQLTERELEILDLIAAGRNNAQIASALYLAPKTVRNNVSNILAKLQATDRAEAIIRARDAGLGG” and “HMRTAKEVFYKELKGYMQNGDELSVKKIYSLFPEINPKTVSWRLHELVQHGKIHRTGHGYYALTQ” are within 0.2 log units of each other in “soluble fraction (log2)” value: 0.273 for the first, 0.0797 for the second.

“HMRTDTIINSGGLKINPEEVENEILKSLGDNNFFIDKIKNDKFGEEIILIALKKIKINLLIESLNLI” and “HMRTFFEIEQLKAYVGEEIQVKFEADSHKQTVLGKLISISEDFIEIENSKKGNLKISLDNYLTSKLIY” are within 0.2 log units of each other in “soluble fraction (log2)” value: -0.286 for the first, -0.468 for the second.

“HMRTGSSVLVGLVAPVRLGATGAPKVFADGALWEARSAVPLNDGQLVEITGTDGLTVLVKPSA” and “HMRTIVSELNDIKGISDASAKKLLIRYGSFEAVREAVMKHEEEFELDMGKRITGALTRYFYEE” are within 0.2 log units of each other in “soluble fraction (log2)” value: 0.138 for the first, 0.223 for the second.

First: HMRTKLEEAVEWLQEQLNDGPVLSKELESEAKAADILPGTLRRAGEALGVVKQKQGGRGGWTWSLPR
Second: HMRTLGADLRALRKARGLTLAGMADNMGKSVGWMSQIERDISEPSISDLRALAKLLDVSVSSLFR
The “soluble fraction (log2)” value of the first is higher: ≥ 0.43 for the first, -0.557 for the second.

Compared with “HMRTQEELVAEVREQMEAMGTIATLYVELYESSEERLVGGVIFEDERHYRFVYEDGLLHYEEEK”, “HMRTRSDVKRAAIIQAAKDAFQEYGVNATSMDKLAEMASVSKRTVYNHFSAKEELVMHIVKE” is higher in “soluble fraction (log2)” value: -1 for the first, 0.174 for the second.

Compared with “HMRTVPEALLGRAYETAETAIVLEGLEAKRTDVFHPTIGNGTVIRLEPASGSQVSAGGVIEIFVSKGTETI”, “HMRVDYKTQLQELLQRQGAAAPQYRLLVEEGPAHLRRFQVGVYFQGRLLGTGWGRNKKEAEQEAARQALMP” is higher in “soluble fraction (log2)” value: -1.31 for the first, 0.186 for the second.

First: HMRVEEVGYGEFLQMAEERDLAEVQVTDTEIIFSDKDTPPNYYKTGRMDDPFLVDRLYSAGIRDFGE
Second: HMRVESVGDRIRRLRKSLGLTQVKLAQMLGIKAPSVVQWESDKTNLSGENLLNAAKLFGVTPDYILYGG
The “soluble fraction (log2)” value of the first is lower: -1.65 for the first, 0.233 for the second.

First: HMRVLEYTADGSRLDVLLSQDGVLSRSRAAELIKGGAVTVDGRAEGKPSAKPAPGALVRVEVPE
Second: HMRVVGRNHYDDADLAHIRSVIQLEARPLNVSRIARTLANEYPKHTYWSYLSFLQKNLRDRPDLF
The “soluble fraction (log2)” value of the first is higher: ≥ 0.43 for the first, 0.419 for the second.

Compared with “HMRVVPEILERAVAVFEALGVDRLPSSTLADRLGYDSPEALADVLRPLGVRPKKYRDGKSTARGYLAADLG”, “HMRYEESVTLGERLLNQSLVALKADNIDDALWERFLREEAGEKSRQEILSDIGLGKRLPVVVAKRLLAPS” is lower in “soluble fraction (log2)” value: -0.284 for the first, -0.982 for the second.

First: HMRYPLPYAFARSQQLLLEETDDGRYTLWMSSHPARSAVGEVSRKYGVQTFEVLADGPLAQRISAAYAQ
Second: HMRYTAAEMAKKLDISRSYLYYLKEAGVVEIEKNENGKPIWTESVYNQLFEYIKKNHRTEEADNTQ
The “soluble fraction (log2)” value of the first is higher: 0.0965 for the first, -0.61 for the second.

Compared with “HMSAAIGEAVIATDEINVRSGPGLSHEIVSVVSRNESYPILEERGDWVQIQLNGGQKGWVVSWLIKKKS”, “HMSAAMTESVLDGIPGLGATRKAALLAHFGSVRKLRAATSEQVREVPGIGPRLAETILATLHEP” is higher in “soluble fraction (log2)” value: -0.268 for the first, 0.0277 for the second.

First: HMSAATGIINTDNVNIRSGPATTYDAVGRLNQGSSVEILSSRNDWYQIQANSLKGWVRNDLLNVQK
Second: HMSADDLVSRTQAIVAELKDLEGPLLPILHSVQEAFGHVPDEVKPVIAEALNLSRAEVHGVVSFYHDFRAH
The “soluble fraction (log2)” value of the first is higher: 0.0683 for the first, -0.571 for the second.

Going from “HMSADIGAEKAKTIALNHAGVSASNAVFLHAKLDYDDGRRTYEVEFYSGSKEYDYEIDAATGEILSYDFD” to “HMSAEAYLSFVKKENLRAAVVNYENNKEWLKDVPHERLLDLAVFAKVDMGEPGMSMKFNNWLLSR”, the “soluble fraction (log2)” value falls from 0.327 to -1.12.

Going from “HMSAEKDGEWLTLTEAAKHLQVSPHVIRRLIQTGALPAEQVMRGAPHQIRAADLDTDRVKTMIAR” to “HMSAEKPVKSELFYKSMLNSFEQAVRFMIANGILEDFKSRIVAINNETNHQNWFNKQEFNAIIERF”, the “soluble fraction (log2)” value falls from 0.228 to -0.032.

“HMSAERFDFRIGPELAGKRFDQALAEALPQFSRSRLSTWIKDGRATLNGATMRPKDSVHAGDTVVVNAE” and “HMSAEVEVPDVVGRQVALAVQLIETKKLRVNVAETYDAKVPPGQVISQSPEAGMKVKEERVITIYVSR” are within 0.2 log units of each other in “soluble fraction (log2)” value: 0.255 for the first, 0.153 for the second.

Going from “HMSAGISVADVTNRTYDEGYNTLTAQHLLVNKVYEANETIPLDTIIRTDPVAGTKVPDNTSITVYVSSGK” to “HMSAGPQGRTPREDELTVGTKVYVSRVGASGVVSSDVSRGKVVVQVGALRLTAAVSELLLLDG”, the “soluble fraction (log2)” value falls from -0.025 to -0.472.

First: HMSAGYTYQNYQQDLKSGNVQNIHIYLSEEMYSGNVKVIYKNNKSVTFTVTDVTIAEAEARQVGISPIIYE
Second: HMSAHDLQVVLRWIGTDEPMTDQRYRITTEDGRTFEGRTDDAGLTERVASTIPFGRYSIEALD
The “soluble fraction (log2)” value of the first is higher: -0.504 for the first, -1 for the second.

Compared with “HMSAIEIDAEKILNYLTDRGGKMPYGDTTAPEVIKDKFNISKAAFKRALGFLLRSNKIEQIDGWTYI”, “HMSAIKSVTTQLDNTKLRTGPDVSYQYTQSYPANTKLTYINKSGTWYQVKDADGNTGYVASWVVTPSE” is higher in “soluble fraction (log2)” value: -0.375 for the first, 0.387 for the second.

Compared with “HMSALIGAHTLERIDSRDFEGVVMAWLPKRDGYDSLYKIYHIEDGDFEELDDREVQAAISLFIEGT”, “HMSAPAMTLDSIRSLLNDRDPWVVTQTVEWLVGLGPQVKTILETLTLESSDAARQAQNALDRINVRNYP” is lower in “soluble fraction (log2)” value: -0.388 for the first, -1.08 for the second.

First: HMSAPNPGQMHSWTDTQGRTLQATFIKADATTVTLNWNGRIVPIPLANLNAASQKLARELASAS
Second: HMSAPRRGETTAASLNLRAGPATDADILAQLPERTPLRVLQEDGEWLRVETHGNEGFVHRQFVAIPGDEP
The “soluble fraction (log2)” value of the first is higher: -0.0969 for the first, -0.347 for the second.

“HMSARRHAVKHLDANQLQTRVARMLSEFGLTAKVSKDPNSNALIIDGAPEAQRIAAQLITTIDKE” and “HMSASSDATRQRVLRAAEQLFGAKGVENVSLREMTTLAGVNLAAVNYHFGSKDALAEAVFEALSER” are within 0.2 log units of each other in “soluble fraction (log2)” value: 0.063 for the first, 0.138 for the second.

“HMSASSEALKTAVRKVLLNNRMTQDRMARDAGLSGSALSQWLHGKYQGDVPALEGRLAAWLADTQAS” and “HMSASSTAPGSVTLRGAILTAWTAAGGERSKMGLPVGYEVRQADGTVTQTFEKGRISVSPTGTATI” are within 0.2 log units of each other in “soluble fraction (log2)” value: 0.132 for the first, -0.0391 for the second.

For “HMSAVNLNDDEKAVYKSIKSGIRSLDELSLRTGMKIYELMAITVSLEMKGLVTKSPDGTLDAT”, the “soluble fraction (log2)” value was -0.0308.
